Data on 14 variants can be found in the supplement of paper PMC12783771.

B1: library; numbered along this chain (parent)
chain: MNIQIGELAKRTACPVVTIRFYEQEGLLPPPGRSRGNFRLYGEEHVERLQFIRHCRSLDMPLSDVRTLLSYRKRPDQDCGEVNMLLDEHIRQVESRIGALLELKHHLVELREACSGARPAQSCGILQGLSDCVCDTRGTTAHPSD

In data set [1] the parent is B1. Kind of data set: sfGFP reporter fluorescence (15 h) (µM FITC); higher = higher leak. To be noted: library round: Round 0; ligand: none. Put shortly: (§1)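 An Echo normalized PCR-made linear PbrR templates to 5 nM and assembled 1 μL reactions in BL21 Star (DE3) PANOx-SP extract carrying the pPbrR-sfGFP reporter plasmid and 30 μg/mL GamS. Reactions received 1 µM lead chloride, 30 µM zinc acetate or no metal and stood 15 hr at 30 °C. Fluorescence at 485/528 nm (Synergy Neo2) was converted with FITC standard curves made in 50 mM sodium borate pH 8.5. Endpoint sfGFP signal is given in µM FITC, from up to three biological replicates.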

Data set [2] covers variants of B1. Put plainly: sfGFP reporter fluorescence (15 h) (µM FITC); higher = stronger transcriptional activation. The following applies: library round: Round 0. The method, boiled down:
as §1

± gives the standard deviation of the averaged measurements.

For MNCQIGELAKRTACPVVTIRFYEQEGLLPPPGRSRGNFRLYGEEHVERLQFIRHCRSLDMPLSDVRTLLSYRKRPDQDCGEVNMLLDEHIRQVESRIGALLELKHHLVELREACSGARPAQSCGILQGLSDCVCDTRGTTAHPSD [I3C], the figures for the sfGFP reporter fluorescence in data set [1], in data set [2] (ligand: 1 µM Pb) and in data set [2] (ligand: 30 µM Zn) were 0.0586, 0.0737 ± 0.0052 and 0.774 ± 0.011, respectively.
For the variant MNIQIGELAKRTACPVVTIRFYEQEGLLPPPGRSRGNFRLDGEEHVERLQFIRHCRSLDMPLSDVRTLLSYRKRPDQDCGEVNMLLDEHIRQVESRIGALLELKHHLVELREACSGARPAQSCGILQGLSDCVCDTRGTTAHPSD [Y41D], the sfGFP reporter fluorescence was determined as 0.0601 ± 0.001 in data set [1], 0.0607 ± 0.00078 in data set [2] (ligand: 1 µM Pb) and 0.0621 ± 0.0023 in data set [2] (ligand: 30 µM Zn).
With MNIQIGELAKRTACPVVTIRFYEQEGLLPPPGRSRGNFRLYGEEHVERLQFIRHCRSLDMPLSDVRTLLSYRKRPDQDCGEVNMLLDEHIRQVESRKGALLELKHHLVELREACSGARPAQSCGILQGLSDCVCDTRGTTAHPSD [I97K], the sfGFP reporter fluorescence stood at 0.0607 ± 0.0029 in data set [1], 0.0597 ± 0.0021 in data set [2] (ligand: 1 µM Pb) and 0.102 ± 0.006 in data set [2] (ligand: 30 µM Zn).
In the case of MNIQIGELAKRTACPVVTIRFYEQEGLLPPPGRSRGNFRLYGEEHVERLQFIRHCRSLDMPLSDVRTLLSYRKRPDQDCGEVNMLLDEHIRQVESRIGALLELKHHLVELREACSGARPAQSCGILQGLSDCVCCTRGTTAHPSD [D135C], the sfGFP reporter fluorescence was determined as 0.0603 ± 0.0013 in data set [1], 0.0792 ± 0.0036 in data set [2] (ligand: 1 µM Pb) and 1.73 ± 0.12 in data set [2] (ligand: 30 µM Zn).
The corresponding values for MNIQIGELAKRTACPVVTIRFYEQEGLLPPPGRSRGNFRLYGEEHVERLQFIRHCRSLDMPLSDVRTLLSYRKRPDQDCGEVNMLLDEHIRQVESRIGALLELKHHLVELREACSGARPAQSCGMLQGLSDCVCDTRGTTAHPSD [I125M] are 0.05992 ± 0.00026, 0.0579 ± 0.001 and 0.05571 ± 0.00052.
The corresponding values for MNIQIGELAKRTACPVVTIRFYEQEGLLPPPGRSRGNFRLYGEEHVERLQFIRHCRSLDMPLSDVRTLLSYRKRPDQDCGEVNMLLDEHIRQVESRIGALLELKHHLVENREACSGARPAQSCGILQGLSDCVCDTRGTTAHPSD [L110N] are 0.0579, 0.05791 ± 0.00052 and 0.0627.
For MNIQIGELAKRTACPFVTIRFYEQEGLLPPPGRSRGNFRLYGEEHVERLQFIRHCRSLDMPLSDVRTLLSYRKRPDQDCGEVNMLLDEHIRQVESRIGALLELKHHLVELREACSGARPAQSCGILQGLSDCVCDTRGTTAHPSD [V16F], the sfGFP reporter fluorescence in data set [1] is 0.0623 ± 0.0015; in data set [2] (ligand: 1 µM Pb), 0.0641; in data set [2] (ligand: 30 µM Zn) it was 0.107 ± 0.0029.
Regarding MNIQIGELAKRTACPVVTIRFYEQEGLLPPPGRSRGNFRLYGEEHVERLQFIRHCRSLDMPLSDVRTLLSYRKRPDQDCGEVNMLLDEHIRQVESRIGALLELKHHLVELREACSGARPAQSCGILQSLSDCVCDTRGTTAHPSD [G128S], the sfGFP reporter fluorescence in data set [1] came to 0.0649 ± 0.0036; in data set [2] (ligand: 1 µM Pb) it was 0.0902 ± 0.0083; in data set [2] (ligand: 30 µM Zn), 1.3 ± 0.14.
Take MNIQIGQLAKRTACPVVTIRFYEQEGLLPPPGRSRGNFRLYGEEHVERLQFIRHCRSLDMPLSDVRTLLSYRKRPDQDCGEVNMLLDEHIRQVESRIGALLELKHHLVELREACSGARPAQSCGILQGLSDCVCDTRGTTAHPSD [E7Q]: the sfGFP reporter fluorescence in data set [1] worked out at 0.0605; in data set [2] (ligand: 1 µM Pb), 0.0891 ± 0.0026; in data set [2] (ligand: 30 µM Zn), 1.18 ± 0.057.
MNIQIGELAKRTACPVVTIRFYEQEGLLPPPGRSRGNFRLYGEEHVERLQFIRHCRSLDMPLSDVRTLLSYRKRPDQDCGEVNMLLDEHIRQVESRIGALLELKHHLVELREACSGARPAQSCGILQGLSDCVCDTRGTTAHLSD [P143L]: the sfGFP reporter fluorescence in data set [1] amounted to 0.0563 ± 0.0018; in data set [2] (ligand: 1 µM Pb), 0.0782 ± 0.0029; in data set [2] (ligand: 30 µM Zn), 0.837 ± 0.046.
Regarding MNIQIGELAKRTACPVVTIRFYEQEGLLPPPGRSRGNFRLYGEEHVERLQFIRHCRSLDMNLSKVRTLLSYRKRPDQDCGEVNMLLDEHIRQVESRIGALLELKHHLVELREACSGARPAQSCGILQGLSDCVCDTRGTTAHPSD [P61N D64K], the sfGFP reporter fluorescence in data set [1] is 0.232 ± 0.0052; in data set [2] (ligand: 1 µM Pb), 0.762 ± 0.12; in data set [2] (ligand: 30 µM Zn) it was 3.05 ± 0.076.
With MNIQIGELAKRTACPVVTIRFYEQEGLLPPPGRSRGNFRLYGEEHVERLQFIRHCRSLDMPLSDVRTLLSYRKRPDQDCGEVNMLLDEHLRQVESRIGALLELKHHLVELREACSGARPAQSCGILQGLSDCVCDTRGTTAHPSD [I90L], the sfGFP reporter fluorescence turned out to be 0.0559 ± 0.0029 in data set [1], 0.0583 ± 0.0015 in data set [2] (ligand: 1 µM Pb) and 0.3539 ± 0.0034 in data set [2] (ligand: 30 µM Zn).
The corresponding values for MNIQIGELAKRTACPVVTIRFYEQEGLLPPPGRSRGNFRLYGEEHVERLQFIRHCRSLDMPLSDVRTLLSYRKRPDQDCGEVNMLLDEHIRQVESRIGALLELKHHLVELRQACSGARPAQSCGILQGLSDCVCDTRGTTAHPSD [E112Q] are 0.0627 ± 0.0015, 0.0909 ± 0.0078 and 1.27 ± 0.082.
In the case of MNIQIGELAKRTACPVVTIRFYEQEGLLPPPGRSRGNFRLYGEEHVERLQFIRHCRSLDMPLSDVRTLLSYRKRPDQDCGEVNMLLDEHIRQVESRIGALLELKHHLVELREACSGARPAQSCAILQGLSDCVCDTRGTTAHPSD [G124A], the sfGFP reporter fluorescence in data set [1] was 0.05919 ± 0.00026; in data set [2] (ligand: 1 µM Pb) it was 0.064 ± 0.0013; in data set [2] (ligand: 30 µM Zn) it was 0.222 ± 0.015.
